Data as given in patent US20250368686A1, “PEPTIDE DRUGS FOR S[…] D[…] BLOCKING HOMO- AND HETERO-DIMERIZATION OF OPIOID RECEPTORS” (OKINAWA INSTITUTE OF SCIENCE AND TECHNOLOGY SCHOOL …, priority 2022, published 2025).

Key:
[1] = biological target: µ-type opioid receptor (MOR), rat, wild type, fluorescently tagged, expressed in the PM of CHO-K1 cells (Example 1) (rat) (UniProt P33535); test: distribution of colocalisation durations with WT-MOR; single-molecule imaging
[2] = biological target: δ-type opioid receptor (DOR), rat, wild type, fluorescently tagged, expressed in the PM of CHO-K1 cells (Example 1) (rat) (UniProt P33533); test: distribution of colocalisation durations with WT-DOR; single-molecule imaging
[3] = biological target: SNAPf-DOR: rat DOR with the SNAPf tag protein at its N-terminus, expressed in the PM of CHO-K1 cells (Example 2) (rat) (UniProt P33533); test: single-molecule imaging, homodimer 2D-KD; copies/um2; + agonist
[4] = biological target: SNAPf-DOR: rat DOR with the SNAPf tag protein at its N-terminus, expressed in the PM of CHO-K1 cells (Example 2) (rat) (UniProt P33533); test: single-molecule imaging, homodimer 2D-KD; copies/um2; - agonist
[5] = biological target: SNAPf-DOR: rat DOR with the SNAPf tag protein at its N-terminus, expressed in the PM of CHO-K1 cells (Example 2) (rat) (UniProt P33533); test: single-molecule imaging, PCCF fit; copies/um2

A dimer lifetime (τ2) [1] of 88 ms was found for “DORΔ22-42 (DOR N-terminal deletion mutant) (from UniProt P33533 1-21; P33533 43-372) (receptor)” in this work.
A dimer lifetime (τ2) [2] of 91 ms was found for “MORΔ32-61 (MOR N-terminal deletion mutant) (from UniProt P33535 1-31; P33535 62-398) (receptor)” in this work.
For “SNAPf-DOR: rat DOR with the SNAPf tag protein at its N-terminus, expressed in the PM of CHO-K1 cells (Example 2) (from UniProt P33533 1-372)”, the Kd [3] was 3.58 ?, the Kd [4] was 7.91 ? and the Kd [5] was 7.91 ?.
